Patent publication US20090311253A1 (AbbVie / Abbott, published 2009)
Several values for one entry are separate records, joined by “and”; a condition that tells them apart may be missing. Equal values may be shown once. Read-outs that look alike come from different tables or passages of the source. One block for each binder: values may come before it.

Columns and labels:
[1] = target: T1, Recombinant Human TRANCE/RANKL/TNFSF 11 (human, UniProt O14788 69-317); assay: direct bind ELISA
T1 construct: extracellular domain
T1 sequence (looked up): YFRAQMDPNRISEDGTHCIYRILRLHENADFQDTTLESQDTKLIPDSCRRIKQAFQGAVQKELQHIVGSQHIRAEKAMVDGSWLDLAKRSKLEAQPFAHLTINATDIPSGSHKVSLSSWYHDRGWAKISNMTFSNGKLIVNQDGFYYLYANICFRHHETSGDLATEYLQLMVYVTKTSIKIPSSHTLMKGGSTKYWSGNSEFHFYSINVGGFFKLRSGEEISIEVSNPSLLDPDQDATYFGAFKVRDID
Experimental: (§1) Enzyme Linked Immunosorbent Assays to screen for antibodies that bind a desired target antigen were performed as follows. High bind ELISA plates (Corning Costar # 3369, Acton, Mass.) were coated with 100 μL/well of 10 μg/ml of desired target antigen (R&D Systems, Minneapolis, Minn.) or desired target antigen extra-cellular domain/FC fusion protein (R&D Systems, Minneapolis, Minn.) or monoclonal mouse anti-polyhistidine antibody (R&D Systems # MAB050, Minneapolis, Minn.) in phosphate buffered saline (10×PBS, Abbott Bioresearch Center, Media Prep# MPS-073, Worcester, Mass.) overnight at 4° C. Plates were washed four times with PBS containing 0.02% Tween 20. Plates were blocked by the addition of 300 μL/well blocking solution (non-fat dry milk powder, various retail suppliers, diluted to 2% in PBS) for ½ hour at room temperature. Plates were washed four times after blocking with PBS containing 0.02% Tween 20.
(§2) Plates were washed 4 times with PBS containing 0.02% Tween 20.
(§3) One hundred microliters of enhanced TMB solution (Neogen Corp. #308177, K Blue, Lexington, Ky.) was added to each well and incubated for 10 minutes at room temperature. The reaction was stopped by the addition of 50 μL 1N sulphuric acid. Plates were read spectrophotometrically at a wavelength of 450 nm.

Recombinant Human IL-1β [2] = target: T2, Recombinant Human IL-1β (human, UniProt P01584 117-269); assay: direct bind ELISA
T2 construct: also called IL-1b; IL-1B

Recombinant Human IL-1β [3] = target: T2, Recombinant Human IL-1β; assay: Biacore SPR
Experimental: (§4) The BIACORE assay (Biacore, Inc, Piscataway, N.J.) determines the affinity of antibodies or DVD-Ig with kinetic measurements of on-rate and off-rate constants. Binding of antibodies or DVD-Ig to a target antigen (for example, a purified recombinant target antigen) is determined by surface plasmon resonance-based measurements with a BiacoreR 1000 or 3000 instrument (Biacore® AB, Uppsala, Sweden) using running HBS-EP (10 mM HEPES [pH 7.4], 150 mM NaCl, 3 mM EDTA, and 0.005% surfactant P20) at 25° C. All chemicals are obtained from Biacore® AB (Uppsala, Sweden) or otherwise from a different source as described in the text. For example, approximately 5000 RU of goat anti-mouse IgG, (Fcγ), fragment specific polyclonal antibody (Pierce Biotechnology Inc, Rockford, Ill.) diluted in 10 mM sodium acetate (pH 4.5) is directly immobilized across a CM5 research grade biosensor chip using a standard amine coupling kit according to manufacturer's instructions and procedures at 25 μg/ml. Unreacted moieties on the biosensor surface are blocked with ethanolamine. Modified carboxymethyl dextran surface in flowcell 2 and 4 is used as a reaction surface. Unmodified carboxymethyl dextran without goat anti-mouse IgG in flow cell 1 and 3 is used as the reference surface. For kinetic analysis, rate equations derived from the 1:1 Langmuir binding model are fitted simultaneously to association and dissociation phases of all eight injections (using global fit analysis) with the use of Biaevaluation 4.0.1 software. Purified antibodies or DVD-Ig are diluted in HEPES-buffered saline for capture across goat anti-mouse IgG specific reaction surfaces. Antibodies or DVD-Ig to be captured as a ligand (25 μg/ml) are injected over reaction matrices at a flow rate of 5 μl/min. The association and dissociation rate constants, kₒₙ (M⁻¹s⁻¹) and koff (s⁻¹) are determined under a continuous flow rate of 25 μl/min. Rate constants are derived by making kinetic binding measurements at different antigen concentrations ranging from […]. The equilibrium dissociation constant (M) of the reaction between antibodies or DVD-Igs and the target antigen is then calculated from the kinetic rate constants by the following formula: KD=koff/kₒₙ. Binding is recorded as a function of time and kinetic rate constants are calculated.

Recombinant Human IL-1β [4] = target: T2, Recombinant Human IL-1β; assay: direct bind ELISA; remark: listed apart in the source
Experimental: as §1, §2, §3

IL-1α = target: T3, IL-1α (UniProt P01583 113-271); assay: direct bind ELISA
T3 construct: also called IL-1alpha; IL-1a
T3 sequence (looked up): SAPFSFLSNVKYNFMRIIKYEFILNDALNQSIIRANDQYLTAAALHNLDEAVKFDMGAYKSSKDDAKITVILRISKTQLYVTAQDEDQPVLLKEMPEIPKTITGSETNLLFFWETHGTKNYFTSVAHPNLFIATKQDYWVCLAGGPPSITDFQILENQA

[5] = target: T1, Recombinant Human TRANCE/RANKL/TNFSF 11; assay: Biacore SPR
Experimental: as §4

Recombinant Human IL-1β [6] = target: T2, Recombinant Human IL-1β; assay: cell-based or functional assay

- EC50 [1]: 0.12 nM
B1: DVD166 (bispecific antibody, human IgG1, kappa)
heavy: not shown
light: EIVLTQSPGTLSLSPGERATLSCRASQSVRGRYLAWYQQKPGQAPRLLIYGASSRATGIPDRFSGSGSGTDFTLTISRLEPEDFAVFYCQQYGSSPRTFGQGTKVEIKRTVAAPQIVLSQSPAILSPSPGEKVTMTCRASSSVSYIHWFQQKPGSSPKPWIYATSNLASGVPVRFSGSGSGTSYSLTISRVEAEDAATYYCQQWTSNPPTFGGGTKLEIKRTVAAPSVFIFPPSDEQLKSGTASVVCLLNNFYPREAKVQWKVDNALQSGNSQESVTEQDSKDSTYSLSSTLTLSKADYEKHKVYACEVTHQGLSSPVTKSFNRGEC
notes: vectors V1, V2; also called RANKL and CD-20 DVD-Ig

- EC50 (Recombinant Human IL-1β [2]): 0.91 nM
- Kd (Recombinant Human IL-1β [3]): 0.0131 nM
- EC50 (Recombinant Human IL-1β [4]): 2.61 nM and 5.27 nM
B2: AB032 (antibody, human IgG1, kappa, V domains shown)
VH: QVQLVESGGGVVQPGRSLRLSCAASGFTFSVYGMNWVRQAPGKGLEWVAIIWYDGDNQYYADSVKGRFTISRDNSKNTLYLQMNGLRAEDTAVYYCARDLRTGPFDYWGQGTLVTVSS
VL: EIVLTQSPDFQSVTPKEKVTITCRASQSIGSSLHWYQQKPDQSPKLLIKYASQSFSGVPSRFSGSGSGTDFTLTINSLEAEDAAAYYCHQSSSLPFTFGPGTKVDIKR
notes: vectors V1 and V2

- EC50 (Recombinant Human IL-1β [2]): 1.89 nM
- EC50 (IL-1α): 2.86 nM
B3: DVD378 (bispecific antibody, human IgG1, kappa)
heavy: not shown
light: EIVLTQSPDFQSVTPKEKVTITCRASQSIGSSLHWYQQKPDQSPKLLIKYASQSFSGVPSRFSGSGSGTDFTLTINSLEAEDAAAYYCHQSSSLPFTFGPGTKVDIKRTVAAPDIQMTQSPSSVSASVGDRVTITCRASQGISSWLAWYQQKPGKAPKLLIYEASNLETGVPSRFSGSGSGSDFTLTISSLQPEDFATYYCQQTSSFLLSFGGGTKVEHKRTVAAPSVFIFPPSDEQLKSGTASVVCLLNNFYPREAKVQWKVDNALQSGNSQESVTEQDSKDSTYSLSSTLTLSKADYEKHKVYACEVTHQGLSSPVTKSFNRGEC
notes: vectors V1, V2

- EC50 (Recombinant Human IL-1β [2]): 500 nM
- EC50 (IL-1α): 965 nM
B4: DVD381 (bispecific antibody, human IgG1, kappa)
heavy: not shown
light: DIQMTQSPSSVSASVGDRVTITCRASQGISSWLAWYQQKPGKAPKLLIYEASNLETGVPSRFSGSGSGSDFTLTISSLQPEDFATYYCQQTSSFLLSFGGGTKVEHKRTVAAPSVFIFPPEIVLTQSPDFQSVTPKEKVTITCRASQSIGSSLHWYQQKPDQSPKLLIKYASQSFSGVPSRFSGSGSGTDFTLTINSLEAEDAAAYYCHQSSSLPFTFGPGTKVDIKRTVAAPSVFIFPPSDEQLKSGTASVVCLLNNFYPREAKVQWKVDNALQSGNSQESVTEQDSKDSTYSLSSTLTLSKADYEKHKVYACEVTHQGLSSPVTKSFNRGEC
notes: vectors V1, V2

- EC50 (Recombinant Human IL-1β [2]): 2620 nM
B5: DVD383 (bispecific antibody, human IgG1, kappa)
heavy: not shown
light: DIQMTQSPSSVSASVGDRVTITCRASQGISSWLAWYQQKPGKAPKLLIYEASNLETGVPSRFSGSGSGSDFTLTISSLQPEDFATYYCQQTSSFLLSFGGGTKVEHKRTVAAPSVFIFPPDIQMTQSPSSLSASVGDRVTITCRASGNIHNYLTWYQQTPGKAPKLLIYNAKTLADGVPSRFSGSGSGTDYTFTISSLQPEDIATYYCQHFWSIPYTFGQGTKLQITTVAAPSVFIFPPSDEQLKSGTASVVCLLNNFYPREAKVQWKVDNALQSGNSQESVTEQDSKDSTYSLSSTLTLSKADYEKHKVYACEVTHQGLSSPVTKSFNRGEC
notes: vectors V1, V2

- Kd (Recombinant Human IL-1β [3]): 0.0829 nM
- koff (Recombinant Human IL-1β [3]): 0.000107 s⁻¹
- kon (Recombinant Human IL-1β [3]): 1.29e+06 M⁻¹ s⁻¹
- Kd [5]: 3.5 nM
- koff [5]: 7.45e-05 s⁻¹
- kon [5]: 21200 M⁻¹ s⁻¹
- IL-1β Neutralization Assay EC50 (MRC5 cells, hIL-8) (Recombinant Human IL-1β [6]): 0.043 nM
- EC50 (Recombinant Human IL-1β [4]): 4.36 nM
- EC50 [1]: 2.89 nM
B6: DVD125 (bispecific antibody, human IgG1, kappa)
heavy: not shown
light: EIVLTQSPDFQSVTPKEKVTITCRASQSIGSSLHWYQQKPDQSPKLLIKYASQSFSGVPSRFSGSGSGTDFTLTINSLEAEDAAAYYCHQSSSLPFTFGPGTKVDIKRTVAAPEIVLTQSPGTLSLSPGERATLSCRASQSVRGRYLAWYQQKPGQAPRLLIYGASSRATGIPDRFSGSGSGTDFTLTISRLEPEDFAVFYCQQYGSSPRTFGQGTKVEIKRTVAAPSVFIFPPSDEQLKSGTASVVCLLNNFYPREAKVQWKVDNALQSGNSQESVTEQDSKDSTYSLSSTLTLSKADYEKHKVYACEVTHQGLSSPVTKSFNRGEC
notes: outer AB032, inner AB018; vectors V1, V2

- EC50 (Recombinant Human IL-1β [2]): 6.47 nM
- EC50 (IL-1α): 8.78 nM
B7: DVD374 (bispecific antibody, human IgG1, kappa)
heavy: not shown
light: EIVLTQSPDFQSVTPKEKVTITCRASQSIGSSLHWYQQKPDQSPKLLIKYASQSFSGVPSRFSGSGSGTDFTLTINSLEAEDAAAYYCHQSSSLPFTFGPGTKVDIKRTVAAPSVFIFPPDIQMTQSPSSVSASVGDRVTITCRASQGISSWLAWYQQKPGKAPKLLIYEASNLETGVPSRFSGSGSGSDFTLTISSLQPEDFATYYCQQTSSFLLSFGGGTKVEHKRTVAAPSVFIFPPSDEQLKSGTASVVCLLNNFYPREAKVQWKVDNALQSGNSQESVTEQDSKDSTYSLSSTLTLSKADYEKHKVYACEVTHQGLSSPVTKSFNRGEC
notes: vectors V1, V2

- EC50 (Recombinant Human IL-1β [2]): 6.52 nM
- EC50 (IL-1α): 4.61 nM
B8: DVD382 (bispecific antibody, human IgG1, kappa)
heavy: not shown
light: B7 light
notes: vectors V1, V2

- EC50 (Recombinant Human IL-1β [2]): 150 nM
B9: DVD379 (bispecific antibody, human IgG1, kappa)
heavy: not shown
light: DIQMTQSPSSVSASVGDRVTITCRASQGISSWLAWYQQKPGKAPKLLIYEASNLETGVPSRFSGSGSGSDFTLTISSLQPEDFATYYCQQTSSFLLSFGGGTKVEHKRTVAAPDIQMTQSPSSLSASVGDRVTITCRASGNIHNYLTWYQQTPGKAPKLLIYNAKTLADGVPSRFSGSGSGTDYTFTISSLQPEDIATYYCQHFWSIPYTFGQGTKLQITTVAAPSVFIFPPSDEQLKSGTASVVCLLNNFYPREAKVQWKVDNALQSGNSQESVTEQDSKDSTYSLSSTLTLSKADYEKHKVYACEVTHQGLSSPVTKSFNRGEC
notes: vectors V1, V2

- EC50 (Recombinant Human IL-1β [2]): 165 nM
- EC50 (IL-1α): 143 nM
B10: DVD377 (bispecific antibody, human IgG1, kappa)
heavy: not shown
light: DIQMTQSPSSVSASVGDRVTITCRASQGISSWLAWYQQKPGKAPKLLIYEASNLETGVPSRFSGSGSGSDFTLTISSLQPEDFATYYCQQTSSFLLSFGGGTKVEHKRTVAAPEIVLTQSPDFQSVTPKEKVTITCRASQSIGSSLHWYQQKPDQSPKLLIKYASQSFSGVPSRFSGSGSGTDFTLTINSLEAEDAAAYYCHQSSSLPFTFGPGTKVDIKRTVAAPSVFIFPPSDEQLKSGTASVVCLLNNFYPREAKVQWKVDNALQSGNSQESVTEQDSKDSTYSLSSTLTLSKADYEKHKVYACEVTHQGLSSPVTKSFNRGEC
notes: vectors V1, V2
